± gives the standard error.
Assay: background-corrected fluorescence of 3'-dye-labeled ssDNA relative to brightest sequence (3'-GCGCG) (fraction); higher = brighter dye fluorescence (less quenching)
Description: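 Single-stranded DNA is synthesized in situ on glass microarrays by 5'->3' photolithographic synthesis, with a Cy3 or Cy5 phosphoramidite coupled at the 3' end next to all 1024 permuted pentamers P1-P5. The construct is 5'-T5-(ACGT minus P5..P1 trinucleotides)-T15-P5P4P3P2P1-dye-3'; the dye is a 3' terminal modification, not part of the sequence. Arrays were scanned at 532 nm (Cy3) or 635 nm (Cy5), background from unlabeled oligos was subtracted, and values are averaged over 10 replicate features per array and at least 3 independent syntheses.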

TTTTTTCATCAGCATCATGATTTTTTTTTTTTTTTGGTGC [CGTGG]
background-corrected fluorescence (dye: Cy3 (3' terminal)): 0.522 ± 0.0057
background-corrected fluorescence (dye: Cy5 (3' terminal)): 0.419 ± 0.027

TTTTTTCAGCATGCGCATGATTTTTTTTTTTTTTTGTATC [CTATG]
background-corrected fluorescence (dye: Cy3 (3' terminal)): 0.417 ± 0.024
background-corrected fluorescence (dye: Cy5 (3' terminal)): 0.309 ± 0.019

TTTTTTCAGCATGCTGCTCATTTTTTTTTTTTTTTGTAAG [GAATG]
background-corrected fluorescence (dye: Cy3 (3' terminal)): 0.582 ± 0.038
background-corrected fluorescence (dye: Cy5 (3' terminal)): 0.462 ± 0.069

TTTTTTCAGCATGAGCATGATTTTTTTTTTTTTTTGTCTC [CTCTG]
background-corrected fluorescence (dye: Cy3 (3' terminal)): 0.393 ± 0.034
background-corrected fluorescence (dye: Cy5 (3' terminal)): 0.33 ± 0.043

TTTTTTGCTGATCATCATCATTTTTTTTTTTTTTTACGGG [GGGCA]
background-corrected fluorescence (dye: Cy3 (3' terminal)): 0.6553 ± 0.0063
background-corrected fluorescence (dye: Cy5 (3' terminal)): 0.579 ± 0.05

TTTTTTGCTGATGCTCATGCTTTTTTTTTTTTTTTACAGA [AGACA]
background-corrected fluorescence (dye: Cy3 (3' terminal)): 0.615 ± 0.02
background-corrected fluorescence (dye: Cy5 (3' terminal)): 0.459 ± 0.036

TTTTTGCATCATCAGCATGATTTTTTTTTTTTTTTTGGTC [CTGGT]
background-corrected fluorescence (dye: Cy3 (3' terminal)): 0.478 ± 0.024
background-corrected fluorescence (dye: Cy5 (3' terminal)): 0.387 ± 0.04

TTTTTTGATCATGCGCATCATTTTTTTTTTTTTTTCGATG [GTAGC]
background-corrected fluorescence (dye: Cy3 (3' terminal)): 0.552 ± 0.021
background-corrected fluorescence (dye: Cy5 (3' terminal)): 0.438 ± 0.024

TTTTTTGCTCATCATCATCATTTTTTTTTTTTTTTAGGGG [GGGGA]
background-corrected fluorescence (dye: Cy3 (3' terminal)): 0.69 ± 0.019
background-corrected fluorescence (dye: Cy5 (3' terminal)): 0.591 ± 0.028

TTTTTGCAGCATCATGATGCTTTTTTTTTTTTTTTTTGCA [ACGTT]
background-corrected fluorescence (dye: Cy3 (3' terminal)): 0.546 ± 0.025
background-corrected fluorescence (dye: Cy5 (3' terminal)): 0.456 ± 0.039

TTTTTTCAGCATGATCATCATTTTTTTTTTTTTTTGTCGG [GGCTG]
background-corrected fluorescence (dye: Cy3 (3' terminal)): 0.666 ± 0.025
background-corrected fluorescence (dye: Cy5 (3' terminal)): 0.506 ± 0.027

TTTTTTGCTCATGATGAGCATTTTTTTTTTTTTTTAGCCT [TCCGA]
background-corrected fluorescence (dye: Cy3 (3' terminal)): 0.481 ± 0.039
background-corrected fluorescence (dye: Cy5 (3' terminal)): 0.394 ± 0.083

TTTTTTGCTGATGATGCTGATTTTTTTTTTTTTTTACCAC [CACCA]
background-corrected fluorescence (dye: Cy3 (3' terminal)): 0.405 ± 0.01
background-corrected fluorescence (dye: Cy5 (3' terminal)): 0.286 ± 0.018

TTTTTTGCTCATGCGCATCATTTTTTTTTTTTTTTAGATG [GTAGA]
background-corrected fluorescence (dye: Cy3 (3' terminal)): 0.552 ± 0.027
background-corrected fluorescence (dye: Cy5 (3' terminal)): 0.439 ± 0.018

TTTTTTCATGCTGCTGCTGATTTTTTTTTTTTTTTGAAAC [CAAAG]
background-corrected fluorescence (dye: Cy3 (3' terminal)): 0.43 ± 0.023
background-corrected fluorescence (dye: Cy5 (3' terminal)): 0.333 ± 0.045

TTTTTTCAGCAGCATCATCATTTTTTTTTTTTTTTGTTGG [GGTTG]
background-corrected fluorescence (dye: Cy3 (3' terminal)): 0.582 ± 0.0069
background-corrected fluorescence (dye: Cy5 (3' terminal)): 0.471 ± 0.028

TTTTTTGAGCATGATGATGCTTTTTTTTTTTTTTTCTCCA [ACCTC]
background-corrected fluorescence (dye: Cy3 (3' terminal)): 0.441 ± 0.019
background-corrected fluorescence (dye: Cy5 (3' terminal)): 0.356 ± 0.055

TTTTTTGCTGATGAGCATGATTTTTTTTTTTTTTTACCTC [CTCCA]
background-corrected fluorescence (dye: Cy3 (3' terminal)): 0.438 ± 0.0039
background-corrected fluorescence (dye: Cy5 (3' terminal)): 0.271 ± 0.016

TTTTTTGAGCAGCAGCATGATTTTTTTTTTTTTTTCTTTC
background-corrected fluorescence (dye: Cy3 (3' terminal)): 0.389 ± 0.014
background-corrected fluorescence (dye: Cy5 (3' terminal)): 0.297 ± 0.05

TTTTTTCATGATCATCATGCTTTTTTTTTTTTTTTGCGGA [AGGCG]
background-corrected fluorescence (dye: Cy3 (3' terminal)): 0.786 ± 0.033
background-corrected fluorescence (dye: Cy5 (3' terminal)): 0.689 ± 0.033

TTTTTTGAGCATCATCATGCTTTTTTTTTTTTTTTCTGGA [AGGTC]
background-corrected fluorescence (dye: Cy3 (3' terminal)): 0.69 ± 0.023
background-corrected fluorescence (dye: Cy5 (3' terminal)): 0.605 ± 0.047

TTTTTGCATGCGCATCAGCATTTTTTTTTTTTTTTTATGT [TGTAT]
background-corrected fluorescence (dye: Cy3 (3' terminal)): 0.639 ± 0.033
background-corrected fluorescence (dye: Cy5 (3' terminal)): 0.489 ± 0.046

TTTTTGCATGAGCATCATGCTTTTTTTTTTTTTTTTCTGA [AGTCT]
background-corrected fluorescence (dye: Cy3 (3' terminal)): 0.611 ± 0.018
background-corrected fluorescence (dye: Cy5 (3' terminal)): 0.56 ± 0.037

TTTTTGCAGCATCATGCGCATTTTTTTTTTTTTTTTTGAT [TAGTT]
background-corrected fluorescence (dye: Cy3 (3' terminal)): 0.578 ± 0.013
background-corrected fluorescence (dye: Cy5 (3' terminal)): 0.453 ± 0.03

TTTTTTGCGCATGATCATGCTTTTTTTTTTTTTTTATCGA [AGCTA]
background-corrected fluorescence (dye: Cy3 (3' terminal)): 0.635 ± 0.0066
background-corrected fluorescence (dye: Cy5 (3' terminal)): 0.517 ± 0.043

TTTTTTGCGCAGCATGCTCATTTTTTTTTTTTTTTATTAG [GATTA]
background-corrected fluorescence (dye: Cy3 (3' terminal)): 0.552 ± 0.011
background-corrected fluorescence (dye: Cy5 (3' terminal)): 0.421 ± 0.058

TTTTTGCATCATGATGATGCTTTTTTTTTTTTTTTTGCCA [ACCGT]
background-corrected fluorescence (dye: Cy3 (3' terminal)): 0.519 ± 0.0069
background-corrected fluorescence (dye: Cy5 (3' terminal)): 0.403 ± 0.029

TTTTTTGATGCTGCTCATCATTTTTTTTTTTTTTTCAAGG [GGAAC]
background-corrected fluorescence (dye: Cy3 (3' terminal)): 0.579 ± 0.028
background-corrected fluorescence (dye: Cy5 (3' terminal)): 0.489 ± 0.029

TTTTTTGCTCATGATGATCATTTTTTTTTTTTTTTAGCCG [GCCGA]
background-corrected fluorescence (dye: Cy3 (3' terminal)): 0.554 ± 0.018
background-corrected fluorescence (dye: Cy5 (3' terminal)): 0.437 ± 0.029

TTTTTTCATCATCATGCTGCTTTTTTTTTTTTTTTGGGAA [AAGGG]
background-corrected fluorescence (dye: Cy3 (3' terminal)): 0.649 ± 0.032
background-corrected fluorescence (dye: Cy5 (3' terminal)): 0.596 ± 0.068

TTTTTGCATGATGATCATGATTTTTTTTTTTTTTTTCCGC [CGCCT]
background-corrected fluorescence (dye: Cy3 (3' terminal)): 0.504 ± 0.022
background-corrected fluorescence (dye: Cy5 (3' terminal)): 0.412 ± 0.025

TTTTTTGCTGCTGCTGATGCTTTTTTTTTTTTTTTAAACA [ACAAA]
background-corrected fluorescence (dye: Cy3 (3' terminal)): 0.51 ± 0.039
background-corrected fluorescence (dye: Cy5 (3' terminal)): 0.407 ± 0.023

TTTTTTGCTGCTCAGCATGATTTTTTTTTTTTTTTAAGTC [CTGAA]
background-corrected fluorescence (dye: Cy3 (3' terminal)): 0.438 ± 0.029
background-corrected fluorescence (dye: Cy5 (3' terminal)): 0.349 ± 0.015
